Data from patent US10869932B2, “Compositions and methods for modifying the surface of cells and methods of use” (UNIVERSITY OF UTAH RESEARCH FOUNDATION, priority 2014, dated 2020).

Target: SDF-1 (Homo sapiens, UniProt P48061)
Experiment: SDF-1 binding to rCXCR4 on the surface of MSCs
Assay type: cell-based
Conditions: FITC-SDF-1, 30 minutes at 4° C.
Procedure: FITC-labeled rSDF-1 (FITC-SDF-1) and rhodamine-labeled rCXCR4 (Rho-CXCR4) were prepared according to the manufacturer's protocol. MSCs were then modified with DMPE-PEG-Rho-CXCR4 or DMPE-PEG-CXCR4. Modified MSCs and non-modified MSCs were incubated with FITC-SDF-1 for 30 minutes of incubation at 4° C. under gentle shaking. […] In order to avoid unknown effects of rhodamine on the interaction between SDF-1 and CXCR4, FITC-SDF-1 was added to MSCs modified with DMPE-PEG-CXCR4. […] Weak SDF-1 intensity was detected on the surface of the non-modified MSCs (see FIG. 12; Control+FITC-SDF-1).
Additional evidence of SDF-1 binding to CXCR4 with CXCR4 detection on the surface of the MSC was achieved by the same methods as employed in the previous experiment. MSCs were modified with DMPE-PEG-CXCR4 and the modified MSCs were incubated with FITC-SDF-1.

Chain of SDF-1 (P48061 22-93, species assumed): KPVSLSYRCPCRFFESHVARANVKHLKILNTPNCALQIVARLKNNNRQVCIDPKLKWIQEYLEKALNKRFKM

SDF-1 binding on the surface of modified MSCs (confocal): FITC-SDF-1 was co-localized with CXCR4
Substance: DMPE-PEG-Rho-CXCR4: DMPE-PEG conjugated with rhodamine-labeled rCXCR4
